Laboratory results reported in patent US20180037638A1.

B1: E7 (antibody, V domains shown)
VH: EVQLVQSGAEVKKPGASVRVSCKTSGYSFTSYDINWVRQTTGQGLEWMGWVNPTSGSTGYAQKFQGRVTMTANTAINTAYMELRDLRSEDTAVYFCVRDVPFDPWGQGTLVTVSS
VL: LQSVLTQPASVSGSPGQSITISCTGTSSDVGKYTFVSWYQQHPGKAPKVMVYEVNKRPLGVSPRFSGSKSGNTAYLTISGLQAEDEADYYCSSYTSSSTVVFGGGTKLTVL
B2: C7 (antibody, V domains shown)
VH: EVQLVQSGAEMKKPGASMKVSCKTSGYTFARKYMHWLRQAPGQGLEWMGIINPTGGTKSYAPKFQGRVTMTSDMSTNTVYMELNSLRSEDTAVYYCVSDDEEPVWGQGTMVTVSS
VL: QSALTQPPSVSKGLRQTATLTCTGNSNNVGSQGAAWLQQHQGHPPKVLSYRNNNRPSGISERFSASRSGNTASLTITGLQPEDEGDYYCSAWDSSLSAPVFGGGTKLTVL
B3: D3 (antibody, V domains shown)
VH: EVQLVQSGAEVKKPGSSVKVSCKAYGGTFGSYGVSWVRRAPGQGLEWMGRLIPIFGTRDYAQKFQGRVTLTADESTNTAYMELSSLRSEDTAVYYCARDGDYYGSGSYYGMDVWGQGTLVTVSS
VL: SYELTQPPSASGSPGQSVTISCTGTSSDVGGYNYVSWYQQHPGKAPKVMIYEVSKRPSGVSNRFSGSKSGNTASLTISGLQAEDEADYYCSSYTSSSTHVVFGGGTKVTVL

How the values were obtained:
[1] = biological target: auto-inducing peptide (AIP) 2 (Staphylococcus aureus); assay: cell-based or functional assay
[2] = biological target: auto-inducing peptide (AIP) 2 (Staphylococcus aureus); assay: SPR, antibody immobilized on CM5 chip, AIP2 as analyte, 1:1 Langmuir fit

Row | Binder | Inhibition of AIP2 QS (IC50; nM), agr-driven YFP reporter strain USA100-AH2619 [1] [nM] | Inhibition of AIP2 QS (IC50; nM), agr-driven YFP reporter strain USA100-AH2625 [1] [nM] | Kd [2] [nM]
1 | B1 | 34.2 | 31 | 
2 | B2 | 33.7 | 31.2 | 
3 | B3 |  |  | 49
